Reference: paper PMC7810697, “Sarcolipin alters SERCA1a interdomain communication by impairing binding of both calcium and ATP” (Scientific Reports, 2021)
Ends that are not written are not given here. * marks the point of attachment. Palmitoyl = CCCCCCCCCCCCCCCC(=O)*

Assays:
[1] = biological target: T1, recombinant SERCA1a (recS1a) (Oryctolagus cuniculus, UniProt P04191); assay: Turnover-dependent dephosphorylation kinetics; assay type: biochemical, rabbit (expressed in S. cerevisiae); conditions: for effect on rate of dephosphorylation: after addition of non-radioactive ATP
T1 construct: BAD (biotin acceptor domain) (C, cleaved yes); made in house; host or cells: Saccharomyces cerevisiae
T1 sequence (P04191 1-994 isoform P04191-2): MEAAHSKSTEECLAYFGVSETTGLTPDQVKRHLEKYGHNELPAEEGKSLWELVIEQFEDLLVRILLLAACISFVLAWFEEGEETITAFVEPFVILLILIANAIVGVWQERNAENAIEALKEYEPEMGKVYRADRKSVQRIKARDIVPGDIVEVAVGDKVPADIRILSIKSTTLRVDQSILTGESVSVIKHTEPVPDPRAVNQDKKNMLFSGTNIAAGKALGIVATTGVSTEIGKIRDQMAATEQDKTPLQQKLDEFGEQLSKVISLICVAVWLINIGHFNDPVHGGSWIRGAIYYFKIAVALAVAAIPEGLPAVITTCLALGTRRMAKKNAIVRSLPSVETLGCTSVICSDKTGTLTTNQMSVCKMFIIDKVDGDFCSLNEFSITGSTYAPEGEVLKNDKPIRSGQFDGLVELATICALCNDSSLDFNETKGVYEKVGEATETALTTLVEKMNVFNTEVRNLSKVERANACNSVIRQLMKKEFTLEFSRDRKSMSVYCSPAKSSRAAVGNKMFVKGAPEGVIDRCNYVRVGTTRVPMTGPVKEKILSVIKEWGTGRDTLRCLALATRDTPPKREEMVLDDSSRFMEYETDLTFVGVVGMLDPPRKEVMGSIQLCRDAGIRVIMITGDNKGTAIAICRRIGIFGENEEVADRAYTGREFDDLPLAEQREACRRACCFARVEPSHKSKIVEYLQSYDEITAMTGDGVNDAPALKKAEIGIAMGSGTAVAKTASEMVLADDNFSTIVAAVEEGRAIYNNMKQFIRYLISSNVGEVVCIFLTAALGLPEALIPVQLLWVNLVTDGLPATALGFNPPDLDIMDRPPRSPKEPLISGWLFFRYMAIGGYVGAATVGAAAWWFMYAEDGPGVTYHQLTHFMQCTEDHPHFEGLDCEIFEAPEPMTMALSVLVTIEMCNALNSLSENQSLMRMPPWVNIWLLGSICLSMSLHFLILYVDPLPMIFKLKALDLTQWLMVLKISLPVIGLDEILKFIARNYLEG
Method: (§1) Transient formation of the phosphoenzyme intermediate was measured after incubation with [γ^32P]ATP followed by acid quenching, and filtration. For most experiments, 50 µL of enzyme at 10 µg/mL in a buffer containing 50 mM Tes-Tris pH7.5, 1 mM KCl, 5 mM MgCl2, 20% glycerol (w/w) and 0.5 mg/mL DDM, supplemented or not with SLN, was stored on ice. Concentrations of EGTA and calcium are specified in figure legends in order to reach the appropriate [Ca^2+]free and therefore the desired starting state for the ATPase. For kinetics of phosphorylation, we initiate reaction by addition of 2 µM [γ^32P]ATP (5 mCi/µmole), and calcium at 100 µM when specified. Reaction was quenched by addition of 2 mL of cold quenching medium (500 mM TCA + 30 mM H3P0_4) under vigorous mixing, and immediately stored on ice for 20–30 min to improve precipitation, a period of time critical for retention of the precipitate on the filter in presence of detergent. This was followed by filtration on GS filters (Millipore, Saint Quentin-Fallavier, France) and careful rinsing of the filters with diluted quenching medium (50 mM TCA + 3 mM H3P0_4). The amount of radioactivity bound to the filter was estimated by liquid scintillation counting (Perkin Elmer TriCarb Counter). When starting from a calcium-deprived state (Fig. 4C,D), EGTA was added only one minute before starting phosphorylation to limit irreversible inactivation of the solubilized ATPase, although the presence of glycerol helps in protecting the enzyme from irreversible inactivation. For dephosphorylation kinetics, 1 mM “cold” Mg.ATP was added after a 30 s period of phosphorylation. For Ca^2+-dependency, we adjust the concentration of free calcium according to the Ca.EGTA constant as mentioned above, before triggering phosphorylation. […] Phosphorylations were done at 0 °C especially for inhibition by vanadate to prevent dissociation of vanadate and limit irreversible inactivation in absence of calcium.

[2] = biological target: T1, recombinant SERCA1a (recS1a); assay: Effect of SLN:SERCA1a stoichiometry on phosphorylated intermediate, recS1a; assay type: biochemical, rabbit (expressed in S. cerevisiae); conditions: for EPmax (stoichiometry series), recS1a / maximum decrease of the EP level, recS1a (discussion): Fig. 4G; for SLN:SERCA1a ratio for half-inhibition, recS1a (Fig. 4H): phosphoenzyme after 20 s, dose-response with variable slope; for SLN:SERCA1a ratio for half-inhibition, recS1a (Fig. 4H) / amplitude of the inhibition of phosphoenzyme level, recS1a: mean of three independent experiments; for amplitude of the inhibition of phosphoenzyme level, recS1a: recS1a without SLN = 100%
Method: as §1

[3] = biological target: T2, DDM-solubilized SR (native SERCA1a) (Oryctolagus cuniculus, UniProt P04191); assay: Effect of SLN:SERCA1a stoichiometry on phosphorylated intermediate, DDM-solubilized SR; assay type: biochemical, rabbit; conditions: for EPmax (stoichiometry series), DDM-solubilized SR / decrease of the EP level, DDM-solubilized native SERCA1a (discussion): Fig. 4G; for amplitude of the inhibition of phosphoenzyme level, DDM-solubilized SR: SR without added SLN = 100%; for amplitude of the inhibition of phosphoenzyme level, DDM-solubilized SR / SLN:SERCA1a ratio for half-inhibition, DDM-solubilized SR (Fig. 4H): mean of three independent experiments; for SLN:SERCA1a ratio for half-inhibition, DDM-solubilized SR (Fig. 4H): phosphoenzyme after 20 s, p = 0.047 pSLN vs SLN
T2 construct: DDM-solubilized native SERCA1a purification; from tissue; host or cells: rabbit skeletal muscle sarcoplasmic reticulum
T2 sequence (P04191 1-994 isoform P04191-2): as above
Method: Transient formation of the phosphoenzyme intermediate was measured after incubation with [γ^32P]ATP followed by acid quenching, and filtration. For most experiments, 50 µL of enzyme at 10 µg/mL in a buffer containing 50 mM Tes-Tris pH7.5, 1 mM KCl, 5 mM MgCl2, 20% glycerol (w/w) and 0.5 mg/mL DDM, supplemented or not with SLN, was stored on ice. Concentrations of EGTA and calcium are specified in figure legends in order to reach the appropriate [Ca^2+]free and therefore the desired starting state for the ATPase. For kinetics of phosphorylation, we initiate reaction by addition of 2 µM [γ^32P]ATP (5 mCi/µmole), and calcium at 100 µM when specified. Reaction was quenched by addition of 2 mL of cold quenching medium (500 mM TCA + 30 mM H3P0_4) under vigorous mixing, and immediately stored on ice for 20–30 min to improve precipitation, a period of time critical for retention of the precipitate on the filter in presence of detergent. This was followed by filtration on GS filters (Millipore, Saint Quentin-Fallavier, France) and careful rinsing of the filters with diluted quenching medium (50 mM TCA + 3 mM H3P0_4). The amount of radioactivity bound to the filter was estimated by liquid scintillation counting (Perkin Elmer TriCarb Counter). When starting from a calcium-deprived state (Fig. 4C,D), EGTA was added only one minute before starting phosphorylation to limit irreversible inactivation of the solubilized ATPase, although the presence of glycerol helps in protecting the enzyme from irreversible inactivation. For dephosphorylation kinetics, 1 mM “cold” Mg.ATP was added after a 30 s period of phosphorylation. For Ca^2+-dependency, we adjust the concentration of free calcium according to the Ca.EGTA constant as mentioned above, before triggering phosphorylation. […] Phosphorylations were done at 0 °C especially for inhibition by vanadate to prevent dissociation of vanadate and limit irreversible inactivation in absence of calcium. […]
resuspended in a large volume of pure water and lyophilized to evaporate most of the TFA. The rinsed powder was then suspended in presence of 10 mM HCl to exchange the anionic residual TFA that may interact with the positive charges of the peptide for chloride. This suspension was lyophilized again.
Three additional cycles of – dissolving in pure water / lyophilisation – will allow to eliminate traces of TFA and to get back to a pH compatible with functional tests. For final solubilisation of SLN in detergent, powder was then dissolved in 50% TFE and an amount of detergent to reach a 100:1 mole:mole detergent:SLN ratio. Here, we used C12E8 as it is fully compatible with functional characterization of SERCA1a 23. This suspension was then lyophilized again to evaporate TFE.
Sarcolipins (Palm-SLN or SLN) were finally resuspended at 0.8 mg/mL (about 200 µM) in a 10 mM potassium phosphate buffer pH 7.4, in the presence of 2.5 mg/mL C12E8. […]
DDM-solubilized native SERCA1a purification
SR vesicles were suspended at a concentration of 1 mg/mL in a buffer containing 50 mM MOPS-Tris pH7, 100 mM KCl, 5 mM MgCl2, 0.1 mM CaCl2, 20 % glycerol (v/v) and 10 mg/mL DDM (detergent:protein ratio 10:1 w/w), and incubated for 10 minutes at 20°C. Solubilized material was recovered after centrifugation for 10 minutes at 120,000 x g on a TLA100.3 rotor (Beckman Coulter TL100 ultracentrifuge). Supernatant was injected on a size exclusion chromatography column (Superdex 200 10/300 GL on an Akta Purifier FPLC system, GE Healthcare) equilibrated with the same buffer but now containing only 0.5 mg/mL DDM. Chromatography was performed at 4°C and at a flow rate of 0.5 mL/min. Fractions corresponding to the main peak were collected, pooled and stored at - 80°C. For further details, see 32.
Steady-state ATPase activity measurements
Measurements were performed using classical enzyme coupled assay. We measured the rate of NADH oxidation in the presence of 0.1 mg/mL lactate deshydrogenase, 0.05 mg/mL pyruvate kinase, 1 mM […]

| effect on rate of dephosphorylation [1] | EPmax (stoichiometry series), recS1a [2] | maximum decrease of the EP level, recS1a (discussion) [2] | amplitude of the inhibition of phosphoenzyme level, recS1a [2] | EPmax (stoichiometry series), DDM-solubilized SR [3] | decrease of the EP level, DDM-solubilized native SERCA1a (discussion) [3] | amplitude of the inhibition of phosphoenzyme level, DDM-solubilized SR [3] | t1/2 of dephosphorylation ([1]; pSLN:SERCA1a 10:1 mol:mol, 1 mM cold Mg.ATP after 30 s phosphorylation, three replicates from two independent experiments, recS1a alone 2.4 +/- 0.4, p=0.064) | Substance | SLN:SERCA1a ratio for half-inhibition, recS1a (Fig. 4H) [2] | SLN:SERCA1a ratio for half-inhibition, DDM-solubilized SR (Fig. 4H) [3] |
| --- | --- | --- | --- | --- | --- | --- | --- | --- | --- | --- |
| No effect | 2.38 ± 0.05 nmoles EP/mg ATPase | about 30% | 28.6 ± 0.5% | 3.94 ± 0.12 nmoles EP/mg ATPase | about 20% | 19.0 ± 0.7% | – | SLN: chemically synthesized non-palmitoylated rabbit sarcolipin; in cited literature results sarcolipin in general (MERSTRELCLNFTVVLITVILIWLLVRSYQY; UniProt P42532 1-31, looked up) | 4.7 ± 0.2 mol SLN added per mole of SERCA1a | 3.1 ± 0.3 mol SLN added per mole of SERCA1a |
| No effect | 2.37 ± 0.05 nmoles EP/mg ATPase | about 30% | 31.2 ± 0.8% | 4.00 ± 0.14 nmoles EP/mg ATPase | about 30% | 28.1 ± 1.2% | 2.8 ± 0.6 s | pSLN: chemically synthesized S-palmitoylated rabbit sarcolipin, 31-residue single-spanning membrane peptide, palmitoylated on Cys9 (MERSTRELC(Palmitoyl)LNFTVVLITVILIWLLVRSYQY; UniProt P42532 1-31, looked up) | 5.1 ± 0.3 mol SLN added per mole of SERCA1a | 5.9 ± 0.6 mol SLN added per mole of SERCA1a |
